# Source: patent publication US20250009780A1, “AGENTS ENCODING CLDN6 AND CD3 BINDING ELEMENTS FOR TREATING CLDN6-POSITIVE CANCERS” (BIONTECH SE, priority 2021, published 2025)
# Molecular target: human CD3 (human) (UniProt P09693)
# Assay: cell-based or functional assay
# Chain of human CD3 (human) (chain, as listed by the source, chain 1 of 3): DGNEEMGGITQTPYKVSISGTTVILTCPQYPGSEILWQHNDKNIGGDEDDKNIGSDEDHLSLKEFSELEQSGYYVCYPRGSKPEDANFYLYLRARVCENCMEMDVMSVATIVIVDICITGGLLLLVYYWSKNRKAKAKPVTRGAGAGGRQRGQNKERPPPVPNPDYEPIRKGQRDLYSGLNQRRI
# Chain of human CD3 (human) (P09693 23-182, chain 2 of 3): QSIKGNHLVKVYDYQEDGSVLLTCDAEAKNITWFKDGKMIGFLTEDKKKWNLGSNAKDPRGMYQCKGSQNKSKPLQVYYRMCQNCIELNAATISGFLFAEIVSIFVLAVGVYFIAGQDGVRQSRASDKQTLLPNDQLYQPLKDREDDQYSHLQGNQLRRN
# Chain of human CD3 (human) (P04234 22-171, chain 3 of 3): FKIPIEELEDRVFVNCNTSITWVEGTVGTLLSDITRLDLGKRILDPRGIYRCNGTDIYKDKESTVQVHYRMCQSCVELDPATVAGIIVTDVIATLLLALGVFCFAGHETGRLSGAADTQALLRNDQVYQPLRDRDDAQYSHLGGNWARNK
substance,measurement,value
OKT3 antibody,"T-cell activation (CD69/CD25, flow cytometry, 48 h)",> 50%
